In US20240301041A1 (Regeneron, published 2024):

Experiments:
[1] = biological target: T1, IgG binding protein (Protein A homolog SpsQ/SpsP) on S. pseudintermedius AHDRCC 98200 (Staphylococcus pseudintermedius); test: ELISA, coated S. pseudintermedius 98200, antibody 9.42E-12 M
T1 construct: whole, on cells; also called S. pseudintermedius 98200; Staphylococcus pseudintermedius AHDRCC 98200

[2] = biological target: T2, IgG binding protein (Protein A homolog SpsQ/SpsP) on S. intermedius 27369 (Staphylococcus intermedius); test: ELISA, coated S. intermedius 27369, antibody 3.09E-07 M
T2 construct: whole, on cells; also called Staphylococcus intermedius 27369

[3] = biological target: T3, Protein A on the surface of S. aureus Newman wild-type (Staphylococcus aureus (strain Newman), UniProt P38507 37-477); test: ELISA, coated S. aureus Newman, antibody 3.09E-07 M
T3 construct: whole, on cells; also called S. aureus Newman WT; wild-type S. aureus expressing Protein A

[4] = biological target: T3, Protein A on the surface of S. aureus …; test: flow cytometry; blocking antibody 10 ug/mL, then Alexa-488 Fc fragment (competitor) on wild-type S. aureus
[5] = biological target: T2, IgG binding protein (Protein A homolog …); test: ELISA, coated S. intermedius 27369, antibody 1.47E-13 M
[6] = biological target: T3, Protein A on the surface of S. aureus …; test: ELISA, coated S. aureus Newman, antibody 9.42E-12 M
[7] = biological target: T4, IgG binding protein (Protein A homolog SpsQ/SpsP) on MRSP S. pseudintermedius 88493 (Staphylococcus pseudintermedius); test: ELISA, coated S. pseudintermedius 88493, antibody 3.86E-08 M
T4 construct: whole, on cells; also called MRSP Staphylococcus pseudintermedius 88493 (methicillin-resistant)

[8] = biological target: T5, Protein A (purified reagent) (Staphylococcus aureus, UniProt P38507 37-477); test: SPR (Biacore), mAb captured by anti-human Fc, Protein A injected, 37 C
T5 construct: also called Protein A (Calbiochem, 539202-5 MG); Protein A reagent

[9] = biological target: T2, IgG binding protein (Protein A homolog …); test: ELISA, coated S. intermedius 27369, antibody 9.42E-12 M
[10] = biological target: T3, Protein A on the surface of S. aureus …; test: ELISA, coated S. aureus Newman, antibody 3.86E-08 M
[11] = biological target: T1, IgG binding protein (Protein A homolog …); test: ELISA, coated S. pseudintermedius 98200, antibody 4.82E-09 M
[12] = biological target: T2, IgG binding protein (Protein A homolog …); test: ELISA, coated S. intermedius 27369, antibody 6.03E-10 M
[13] = biological target: T1, IgG binding protein (Protein A homolog …); test: ELISA, coated S. pseudintermedius 98200, antibody 7.54E-11 M
[14] = biological target: T1, IgG binding protein (Protein A homolog …); test: ELISA, coated S. pseudintermedius 98200, antibody 3.09E-07 M
[15] = biological target: T1, IgG binding protein (Protein A homolog …); test: ELISA, coated S. pseudintermedius 98200, antibody 6.03E-10 M
[16] = biological target: T1, IgG binding protein (Protein A homolog …); test: ELISA, coated S. pseudintermedius 98200, antibody 1.47E-13 M
[17] = biological target: T1, IgG binding protein (Protein A homolog …); test: ELISA, coated S. pseudintermedius 98200, antibody 3.86E-08 M
[18] = biological target: T3, Protein A on the surface of S. aureus …; test: flow cytometry; blocking antibody 1 ug/mL, then Alexa-488 Fc fragment (competitor) on wild-type S. aureus
[19] = biological target: T1, IgG binding protein (Protein A homolog …); test: ELISA, coated S. pseudintermedius 98200, antibody 1.18E-12 M

B1: H1xH15140P*/* (anti-Protein A) (antibody, V domains shown)
VH: EVQLVESGGGLVQPGGSLTLSCTASGFSFSSYVMSWVRQSPGKGLEWVSAIGGSGTSTYYRDSVKGRFTISRDNSKNTLNLQMSSLRAEDTAVYYCARDGLGHRDYWGQGTLVTVSS
VL: DIQMTQSPSSVSASVGDRVTITCRASQGINSWLAWYQQKPGKAPKLLIYAASSLQSGVPSRFSGSGSGTDFTLTISSLQPEDFATYYCQQANSFPFTFGPGTKVDIK
notes: also called anti-Protein A hIgG1*/*; H1xH15140P*/*-L1
With B1 the ELISA luminescent signal [1] was 2480, the ELISA luminescent signal [2] was 21000 and the ELISA luminescent signal [3] was 979000. For the same binder, the “Fc: S. aureus blocking activity (%)” value [4] was 97%, the ELISA luminescent signal [5] was 1510 and the ELISA luminescent signal [6] was 60500. It also gave an ELISA luminescent signal [7] of 6360, a Kd [8] of 98.6 pM and a koff [8] of 0.000117 s⁻¹. For the same binder, the kon [8] was 1.19e+06 M⁻¹ s⁻¹, the t½ [8] was 1.65 h and the ELISA luminescent signal [9] was 1520. The ELISA luminescent signal [10] was 838000, the ELISA luminescent signal [11] was 3400 and the ELISA luminescent signal [12] was 3340. For the same binder, the ELISA luminescent signal [13] was 4680, the ELISA luminescent signal [14] was 20600 and the ELISA luminescent signal [15] was 4890. The ELISA luminescent signal [16] was 3940, the ELISA luminescent signal [17] was 6680 and the “Fc: S. aureus blocking activity (%)” value [18] was 78%. For the same binder, the ELISA luminescent signal [19] was 5020.
